We go through three compounds from PMC10718521, “Complexity of αvβ6-integrin targeting RGD peptide trimers: emergence of non-specific binding by synergistic interaction” (RSC Medicinal Chemistry, 2023).

One data set can be described thus: in vivo. Details: species or system mice. The note with it: CB17 SCID, mouse, total radioactivity. The text has this: The biodistribution of all ^68Ga-labeled peptide trimers was investigated in severe combined immunodeficiency (SCID) mice bearing subcutaneous xenografts of the αvβ6-integrin expressing human lung adenocarcinoma cell line H2009 on their right shoulders.
(§1) Unless otherwise noted, the materials and the instrumentation used (analytical and preparative HPLC, ESI-MS, gamma counter, centrifuge), and the experimental procedures (^68Ga radiolabeling and radio-TLC for quality control, determination of log D7.4, cultivation of H2009 human lung adenocarcinoma cells, generation of tumor xenografts in CB17 SCID mice, small-animal PET, and biodistribution) were described before.[19] All animal experiments have been carried out according to applicable law and institutional guidelines of Technical University of Munich, and were approved by the responsible local authority (Regierung von Oberbayern). The H2009 cells were regularly authenticated and tested for mycoplasma contamination. The affinities of the pentynoic amide functionalized peptides were determined employing a well-established ELISA protocol on immobilized integrins.[36] TRAP-triazide,[38]FF (previously termed AvB6),[32] and YY (also referred to as Tyr2-alkyne)[33] were synthesized as described previously. RP-HPLC for assessment of compound polarity was done on a 150 × 4.6 mm ReproSil-Pur 120 C18-AQ 5 μm column, with a flow of 0.75 mL min^−1 and a gradient of 10–50% MeCN in water, both containing 0.1% trifluoroacetic acid, within 15 min. The required ^natGa-complexes of the peptide trimers were synthesized by reaction with equimolar amounts of aq. GaCl3 as described.[19]

Data set [1] is classed as physicochemical. The note with it: pH 7.4. How it is done: The trimers were labeled with ^68Ga for biodistribution and small-animal PET experiments employing a fully automated method.[39] Non-radioactive reference compounds were obtained by complexation of equimolar amounts of ^natGa^3+ in form of the aq. chloride solution.[39] The polarity of the ^68Ga or ^natGa^3+ containing conjugates, respectively, was assessed by two established proxies, namely the n-octanol/water distribution coefficient at pH 7.4, log D7.4, and the retention time tR on a reverse-phase HPLC column with a suitable liquid-phase gradient (10–50% acetonitrile in water with 0.1% trifluoroacetic acid) (see Fig. 2a). […] A measurable decrease of the log D7.4 was only observed for ≥3 Tyr. […]
as §1

Where [2] appears, read: tumor/organ ratio Heart (myocard).
Where [3] appears, read: tumor/organ ratio Large intestine (empty).
Setting [4] is: tumor/organ ratio Small intestine (empty).
The mark [5] stands for this setting: tumor/organ ratio Stomach (empty).

As usually defined, the tissue uptake is the percentage of the injected dose found per gram of tissue. One may read the logD as the decadic logarithm of the distribution of all forms, ionised or not, between an organic phase and buffer at a given pH. Regarding `CC(C)C[C@@H]1NC(=O)[C@H](CC(=O)O)NC(=O)CNC(=O)[C@H](CCCNC(=N)N)NC(=O)[C@H](Cc2ccccc2)NC(=O)[C@H](CCCCNC(=O)CCc2cn(CCCNC(=O)CCP(=O)(O)CN3CCN(CP(=O)(O)CCC(=O)NCCCn4cc(CCC(=O)NCCCC[C@H]5C(=O)N[C@@H](Cc6ccccc6)C(=O)N[C@@H](CCCNC(=N)N)C(=O)NCC(=O)N[C@@H](CC(=O)O)C(=O)N[C@@H](CC(C)C)C(=O)N[C@@H](C)C(=O)N[C@@H](Cc6ccccc6)C(=O)N6CCC[C@@H]6C(=O)N5C)nn4)CCN(CP(=O)(O)CCC(=O)NCCCn4cc(CCC(=O)NCCCC[C@H]5C(=O)N[C@@H](Cc6ccccc6)C(=O)N[C@@H](CCCNC(=N)N)C(=O)NCC(=O)N[C@@H](CC(=O)O)C(=O)N[C@@H](CC(C)C)C(=O)N[C@@H](C)C(=O)N[C@@H](Cc6ccccc6)C(=O)N6CCC[C@@H]6C(=O)N5C)nn4)CC3)nn2)N(C)C(=O)[C@H]2CCCN2C(=O)[C@H](Cc2ccccc2)NC(=O)[C@H](C)NC1=O` (68Ga complex, metal not drawn) [Y0], the tissue uptake at 1.5 h in “in vivo” (Adrenals uptake) amounted to 2.4 ± 0.38 %ID/g; in the data set “in vivo” (Blood uptake), 4.01 ± 0.74 %ID/g; in the data set “in vivo” (Heart (myocard) uptake), 2.13 ± 0.42 %ID/g; in “in vivo” (Kidneys uptake) it was 90.7 ± 6.7 %ID/g; in the data set “in vivo” (Large intestine (empty) uptake), 5.74 ± 1.36 %ID/g; in “in vivo” (Liver uptake) it was 7.55 ± 0.78 %ID/g. Also, the tissue uptake at 1.5 h in the data set “in vivo” (Lung uptake) turned out to be 16.9 ± 5.34 %ID/g; in the data set “in vivo” (Muscle uptake) it was 1.1 ± 0.22 %ID/g; in “in vivo” (Pancreas uptake), 0.91 ± 0.22 %ID/g; in the data set “in vivo” (Small intestine (empty) uptake), 4.2 ± 1.07 %ID/g; in the data set “in vivo” (Spleen uptake), 5.21 ± 1.05 %ID/g; in “in vivo” (Stomach (empty) uptake), 10.3 ± 1.62 %ID/g. In addition, the tissue uptake at 1.5 h in “in vivo” (Tumor H2009 uptake) worked out at 8.73 ± 0.81 %ID/g. Besides, in data set [1], the “log D7.4” value is −1.4 to −1.5. In data set [1], this compound yielded a logD of -1.5 ± 0.1.
`CC(C)C[C@@H]1NC(=O)[C@H](CC(=O)O)NC(=O)CNC(=O)[C@H](CCCNC(=N)N)NC(=O)[C@H](Cc2ccccc2)NC(=O)[C@H](CCCCNC(=O)CCc2cn(CCCNC(=O)CCP(=O)(O)CN3CCN(CP(=O)(O)CCC(=O)NCCCn4cc(CCC(=O)NCCCC[C@H]5C(=O)N[C@@H](Cc6ccccc6)C(=O)N[C@@H](CCCNC(=N)N)C(=O)NCC(=O)N[C@@H](CC(=O)O)C(=O)N[C@@H](CC(C)C)C(=O)N[C@@H](C)C(=O)N[C@@H](Cc6ccccc6)C(=O)N6CCC[C@@H]6C(=O)N5C)nn4)CCN(CP(=O)(O)CCC(=O)NCCCn4cc(CCC(=O)NCCCC[C@H]5C(=O)N[C@@H](Cc6ccccc6)C(=O)N[C@@H](CCCNC(=N)N)C(=O)NCC(=O)N[C@@H](CC(=O)O)C(=O)N[C@@H](CC(C)C)C(=O)N[C@@H](C)C(=O)N[C@@H](Cc6ccc(O)cc6)C(=O)N6CCC[C@@H]6C(=O)N5C)nn4)CC3)nn2)N(C)C(=O)[C@H]2CCCN2C(=O)[C@H](Cc2ccccc2)NC(=O)[C@H](C)NC1=O` (68Ga complex, metal not drawn) [Y1F]: the tissue uptake at 1.5 h in “in vivo” (Adrenals uptake) worked out at 1.26 ± 0.24 %ID/g; in “in vivo” (Blood uptake), 2.57 ± 0.33 %ID/g; in “in vivo” (Heart (myocard) uptake), 1.2 ± 0.16 %ID/g; in the data set “in vivo” (Kidneys uptake), 111 ± 15.3 %ID/g; in “in vivo” (Large intestine (empty) uptake), 4.43 ± 1.28 %ID/g; in “in vivo” (Liver uptake) it was 3.86 ± 0.17 %ID/g. Besides, the tissue uptake at 1.5 h in “in vivo” (Lung uptake) came out at 8.81 ± 0.64 %ID/g; in “in vivo” (Muscle uptake), 0.97 ± 0.48 %ID/g; in the data set “in vivo” (Pancreas uptake) it was 0.61 ± 0.1 %ID/g; in “in vivo” (Small intestine (empty) uptake), 2.86 ± 0.57 %ID/g; in the data set “in vivo” (Spleen uptake) it was 3.48 ± 0.49 %ID/g; in “in vivo” (Stomach (empty) uptake), 7.37 ± 1.23 %ID/g. For the same compound, in the data set “in vivo” (Tumor H2009 uptake), the tissue uptake at 1.5 h was 8.08 ± 1.35 %ID/g. Besides, the tissue to tissue ratio at 1.5 h was 6.5 ± 0.8 in “in vivo” (tumor/organ ratio Adrenals); 3.2 ± 0.6 in the data set “in vivo” (tumor/organ ratio Blood); 6.8 ± 1.2 in the data set “in vivo” (setting [2]); 0.1 in “in vivo” (tumor/organ ratio Kidneys); 2 ± 0.9 in the data set “in vivo” (setting [3]); 2.1 ± 0.4 in “in vivo” (tumor/organ ratio Liver). Also, the tissue to tissue ratio at 1.5 h in the data set “in vivo” (tumor/organ ratio Lung) stood at 0.9 ± 0.1; in the data set “in vivo” (tumor/organ ratio Muscle), 9.5 ± 3.2; in “in vivo” (tumor/organ ratio Pancreas), 13.3 ± 2.3; in the data set “in vivo” (setting [4]), 2.9 ± 0.9; in “in vivo” (tumor/organ ratio Spleen), 2.4 ± 0.2; in “in vivo” (setting [5]), 1.1 ± 0.3. The “log D7.4” value in data set [1] is recorded as −1.4 to −1.5. In data set [1], this compound came in with a logD of -1.4 ± 0.1.
For the compound `CC(C)C[C@@H]1NC(=O)[C@H](CC(=O)O)NC(=O)CNC(=O)[C@H](CCCNC(=N)N)NC(=O)[C@H](Cc2ccccc2)NC(=O)[C@H](CCCCNC(=O)CCc2cn(CCCNC(=O)CCP(=O)(O)CN3CCN(CP(=O)(O)CCC(=O)NCCCn4cc(CCC(=O)NCCCC[C@H]5C(=O)N[C@@H](Cc6ccccc6)C(=O)N[C@@H](CCCNC(=N)N)C(=O)NCC(=O)N[C@@H](CC(=O)O)C(=O)N[C@@H](CC(C)C)C(=O)N[C@@H](C)C(=O)N[C@@H](Cc6ccccc6)C(=O)N6CCC[C@@H]6C(=O)N5C)nn4)CCN(CP(=O)(O)CCC(=O)NCCCn4cc(CCC(=O)NCCCC[C@H]5C(=O)N[C@@H](Cc6ccc(O)cc6)C(=O)N[C@@H](CCCNC(=N)N)C(=O)NCC(=O)N[C@@H](CC(=O)O)C(=O)N[C@@H](CC(C)C)C(=O)N[C@@H](C)C(=O)N[C@@H](Cc6ccccc6)C(=O)N6CCC[C@@H]6C(=O)N5C)nn4)CC3)nn2)N(C)C(=O)[C@H]2CCCN2C(=O)[C@H](Cc2ccccc2)NC(=O)[C@H](C)NC1=O` (68Ga complex, metal not drawn) [Y1Y], the tissue uptake at 1.5 h in “in vivo” (Adrenals uptake) was 1.57 ± 0.41 %ID/g; in the data set “in vivo” (Blood uptake), 2.54 ± 0.37 %ID/g; in the data set “in vivo” (Heart (myocard) uptake), 1.54 ± 0.61 %ID/g; in “in vivo” (Kidneys uptake) it was 91.2 ± 9.95 %ID/g; in the data set “in vivo” (Large intestine (empty) uptake) it was 4.1 ± 0.84 %ID/g; in “in vivo” (Liver uptake), 4.39 ± 0.46 %ID/g. In addition, the tissue uptake at 1.5 h is 6.76 ± 2.02 %ID/g in the data set “in vivo” (Lung uptake); 0.75 ± 0.17 %ID/g in “in vivo” (Muscle uptake); 0.64 ± 0.11 %ID/g in “in vivo” (Pancreas uptake); 2.72 ± 0.36 %ID/g in “in vivo” (Small intestine (empty) uptake); 3.85 ± 0.86 %ID/g in the data set “in vivo” (Spleen uptake); 6.78 ± 0.72 %ID/g in the data set “in vivo” (Stomach (empty) uptake). Moreover, in the data set “in vivo” (Tumor H2009 uptake), the tissue uptake at 1.5 h is 8.16 ± 2.01 %ID/g. In addition, the tissue to tissue ratio at 1.5 h is 5.3 ± 1.5 in the data set “in vivo” (tumor/organ ratio Adrenals); 3.2 ± 0.7 in the data set “in vivo” (tumor/organ ratio Blood); 5.7 ± 2 in the data set “in vivo” (setting [2]); 0.1 in “in vivo” (tumor/organ ratio Kidneys); 2 ± 0.5 in “in vivo” (setting [3]); 1.8 ± 0.3 in “in vivo” (tumor/organ ratio Liver). For the same compound, the tissue to tissue ratio at 1.5 h in the data set “in vivo” (tumor/organ ratio Lung) is 1.2 ± 0.2; in “in vivo” (tumor/organ ratio Muscle), 11.2 ± 3.4; in “in vivo” (tumor/organ ratio Pancreas), 12.7 ± 2.9; in the data set “in vivo” (setting [4]), 3 ± 0.7; in “in vivo” (tumor/organ ratio Spleen) it was 2.2 ± 0.5; in the data set “in vivo” (setting [5]), 1.2 ± 0.2. In addition, in data set [1], the “log D7.4” value is recorded as −1.4 to −1.5. This compound also gave a logD in data set [1] of -1.5 ± 0.1.
